Experimental data published in patent US20240398949A1 (OSLO UNIVERSITETSSYKEHUS HF, published 2024).

Columns and labels:
full-length HER2 = biological target: T1, full-length HER2 (Homo sapiens (Human), UniProt P04626 23-1255); experiment: flow cytometry on cell lines expressing full-length HER2, goat anti-rat-PE secondary
T1 construct: Endogenous HER2 on cell lines
Description: Cells were washed, pelleted down and resuspended in 100 μl FACS buffer (containing phosphate-buffered saline (PBS), pH 7, 2% FBS, and 2 mM EDTA). […] Cells were washed twice, resuspended in 100 μL FACS buffer containing secondary antibody goat anti-rat-PE (0.26 μg/ml) and Fixable Viability Dye eFluor™ 780 and incubated for 30 minutes in the dark at 4° C. Cells were washed, resuspended in 200 μL FACS buffer, and analyzed on a LSR II flow cytometer (BD Biosciences, Franklin Lakes, NJ, USA). Data were analyzed with FlowJo software (v10.7.1, FlowJo LLC).

peptide 5 (FIGURE 3 d/e) = biological target: T2, peptide 5 (FIGURE 3 d/e); experiment: peptide array on cellulose membrane, truncation series, signal intensity (area under curve), duplicate spots
T2 peptide: DLSYMPIWKFPDEEGA

[1] = biological target: T3, Peptide 11 of Table 4 (N-terminal truncation, proline-612 lost); experiment: as above
T3 peptide: IWKFPDEEGA

peptide 6 (FIGURE 3 d/e) = biological target: T4, peptide 6 (FIGURE 3 d/e); experiment: as above
T4 peptide: LSYMPIWKFPDEEGA

peptide 4 (FIGURE 3 d/e) = biological target: T5, peptide 4 (FIGURE 3 d/e); experiment: as above
T5 peptide: PDLSYMPIWKFPDEEGA

[2] = biological target: T6, Peptide 13 of Table 4 (N-terminal truncation, tryptophan-614 lost); experiment: as above
T6 peptide: KFPDEEGA

[3] = biological target: T7, peptide 16 (FIGURE 3 d/e); experiment: as above
T7 construct: also called DEEGA
T7 peptide: DEEGA

peptide 8 (FIGURE 3 d/e) = biological target: T8, peptide 8 (FIGURE 3 d/e); experiment: as above
T8 peptide: YMPIWKFPDEEGA

[4] = biological target: T9, peptide 15 (FIGURE 3 d/e); experiment: as above
T9 construct: also called PDEEGA
T9 peptide: PDEEGA

peptide 3 (FIGURE 3 d/e) = biological target: T10, peptide 3 (FIGURE 3 d/e); experiment: as above
T10 peptide: KPDLSYMPIWKFPDEEGA

[5] = biological target: T11, Peptide 12 of Table 4 (N-terminal truncation, isoleucine-613 lost); experiment: as above
T11 peptide: WKFPDEEGA

peptide 2 (FIGURE 3 d/e) = biological target: T12, peptide 2 (FIGURE 3 d/e); experiment: as above
T12 peptide: VKPDLSYMPIWKFPDEEGA

[6] = biological target: T13, Peptide 1 of Table 4 (HER2 glycine-603 to alanine-622); experiment: as above
T13 construct: Parent peptide of the N-terminal truncation and double-alanine substitution series
T13 peptide: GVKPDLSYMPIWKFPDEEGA

peptide 7 (FIGURE 3 d/e) = biological target: T14, peptide 7 (FIGURE 3 d/e); experiment: as above
T14 peptide: SYMPIWKFPDEEGA

[7] = biological target: T15, peptide 17 (FIGURE 3 d/e); experiment: as above
T15 construct: also called EEGA
T15 peptide: EEGA

[8] = biological target: T16, Peptide 10 of Table 4 (N-terminal truncation, methionine-611 lost); experiment: as above
T16 peptide: PIWKFPDEEGA

[9] = biological target: T17, peptide 14 (FIGURE 3 d/e); experiment: as above
T17 construct: also called FPDEEGA
T17 peptide: FPDEEGA

peptide 9 (FIGURE 3 d/e) = biological target: T18, peptide 9 (FIGURE 3 d/e); experiment: as above
T18 peptide: MPIWKFPDEEGA

[10] = biological target: T19, Peptide 8 of Table 3 (15mer of the p95HER2 extracellular domain); experiment: peptide array on cellulose membrane, overlapping 15mers, signal intensity (area under curve), triplicate spots
T19 construct: Synthetic peptide immobilized on a cellulose membrane
T19 peptide: DDKGCPAEQRASPLT

[11] = biological target: T20, Peptide 4 of Table 3 (15mer of the p95HER2 extracellular domain); experiment: as above
T20 construct: Synthetic peptide immobilized on a cellulose membrane
T20 peptide: CQPCPINCTHSCVDL

[12] = biological target: T21, Peptide 1 of Table 3 (15mer of the p95HER2 extracellular domain); experiment: as above
T21 construct: Synthetic peptide immobilized on a cellulose membrane
T21 peptide: MPIWKFPDEEGACQP

[13] = biological target: T22, Peptide 6 of Table 3 (15mer of the p95HER2 extracellular domain); experiment: as above
T22 construct: Synthetic peptide immobilized on a cellulose membrane
T22 peptide: THSCVDLDDKGCPAE

[14] = biological target: T23, Peptide 3 of Table 3 (15mer of the p95HER2 extracellular domain); experiment: as above
T23 construct: Synthetic peptide immobilized on a cellulose membrane
T23 peptide: EEGACQPCPINCTHS

B1: Oslo-2 antibody (monoclonal antibody against p95HER2) (antibody, V domains shown)
VH: EVQILETGGGLVKPGGSLRLSCATSGFNFNDYFMNWVRQAPGKGLEWIAQIRNKNYNYATYFAESLEGRFTISRDDSKSSVYLQVNSLRAEDTALYYCTELRYDYWGQGVMVTVSS
VL: DIVMTQSPFSLAVSEGEMVTINCKSSQSLLSSGNQKNNLAWYQQKPGQSPKLLIYYASTRQSGVPDRFIGSGSGTDFTLTISDVQAEDLADYYCLQHYSSPYTFGAGTKLELK
notes: Monoclonal antibody from a rat hybridoma (mClone 1), detected with goat anti-rat-PE; also called the antibody of interest; the antibody
binding result (full-length HER2): no binding (tested: 10 µg/ml (not on the sheet)) | binding result (peptide 5 (FIGURE 3 d/e)): binds | binding result [1]: binds | binding result (peptide 6 (FIGURE 3 d/e)): binds | binding result (peptide 4 (FIGURE 3 d/e)): binds | binding result [2]: no binding | binding result [3]: no binding | binding result (peptide 8 (FIGURE 3 d/e)): binds | binding result [4]: no binding | binding result (peptide 3 (FIGURE 3 d/e)): binds | binding result [5]: binds | binding result (peptide 2 (FIGURE 3 d/e)): binds | binding result [6]: binds | binding result (peptide 7 (FIGURE 3 d/e)): binds | binding result [7]: no binding | binding result [8]: binds | binding result [9]: no binding | binding result (peptide 9 (FIGURE 3 d/e)): binds | binding result [10]: no binding | binding result [11]: no binding | binding result [12]: binds | binding result [13]: no binding | binding result [14]: no binding
